Source: doi:10.1101/2025.03.07.641123

Columns and labels:
[1] = molecular target: TW1 (DtxR-Geminin coiled-coil-SpyCatcher) (UniProt P0DJL7); assay: mass photometry
[2] = molecular target: TW2 (TrpR-Geminin coiled-coil-SpyTag-Geminin coiled-coil-MetJ) (UniProt P0A881); assay: mass photometry

Row | stoichiometry N [1] | Substance | stoichiometry N [2]
1 | 2 | TW1 (DtxR-Geminin coiled-coil-SpyCatcher) (from UniProt P0DJL7 2-121; O75496 110-145) | –
2 | – | TW2 (TrpR-Geminin coiled-coil-SpyTag-Geminin coiled-coil-MetJ) (from UniProt P0A881 2-108; O75496 110-145; O75496 110-145; P0A8U6 2-105) | 2
